Assay results taken from patent US20180185459A1 (PORTOLA PHARMACEUTICALS, published 2018).

Legend:
[1] = target: T1, cofactor factor Va of the prothrombinase complex (endogenous, in human plasma), P12259
T1 chain 1: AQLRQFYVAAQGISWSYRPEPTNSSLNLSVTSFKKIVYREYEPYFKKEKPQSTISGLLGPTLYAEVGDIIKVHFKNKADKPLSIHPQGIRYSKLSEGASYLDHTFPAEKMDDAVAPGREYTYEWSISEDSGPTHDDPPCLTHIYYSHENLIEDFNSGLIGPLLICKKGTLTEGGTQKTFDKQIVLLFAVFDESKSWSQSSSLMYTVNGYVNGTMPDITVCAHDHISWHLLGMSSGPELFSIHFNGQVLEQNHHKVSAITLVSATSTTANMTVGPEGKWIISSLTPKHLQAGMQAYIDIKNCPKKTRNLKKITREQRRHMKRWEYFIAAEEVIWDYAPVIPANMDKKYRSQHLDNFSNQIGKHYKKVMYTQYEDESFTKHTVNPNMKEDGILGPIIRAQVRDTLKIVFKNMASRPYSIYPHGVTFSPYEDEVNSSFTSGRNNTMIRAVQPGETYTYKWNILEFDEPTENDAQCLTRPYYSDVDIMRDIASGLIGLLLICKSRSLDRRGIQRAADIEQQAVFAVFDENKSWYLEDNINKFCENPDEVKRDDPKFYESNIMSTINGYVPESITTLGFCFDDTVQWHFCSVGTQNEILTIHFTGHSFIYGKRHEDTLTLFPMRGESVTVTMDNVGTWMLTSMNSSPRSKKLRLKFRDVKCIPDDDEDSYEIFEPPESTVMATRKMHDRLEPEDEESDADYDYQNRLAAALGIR
T1 chain 2: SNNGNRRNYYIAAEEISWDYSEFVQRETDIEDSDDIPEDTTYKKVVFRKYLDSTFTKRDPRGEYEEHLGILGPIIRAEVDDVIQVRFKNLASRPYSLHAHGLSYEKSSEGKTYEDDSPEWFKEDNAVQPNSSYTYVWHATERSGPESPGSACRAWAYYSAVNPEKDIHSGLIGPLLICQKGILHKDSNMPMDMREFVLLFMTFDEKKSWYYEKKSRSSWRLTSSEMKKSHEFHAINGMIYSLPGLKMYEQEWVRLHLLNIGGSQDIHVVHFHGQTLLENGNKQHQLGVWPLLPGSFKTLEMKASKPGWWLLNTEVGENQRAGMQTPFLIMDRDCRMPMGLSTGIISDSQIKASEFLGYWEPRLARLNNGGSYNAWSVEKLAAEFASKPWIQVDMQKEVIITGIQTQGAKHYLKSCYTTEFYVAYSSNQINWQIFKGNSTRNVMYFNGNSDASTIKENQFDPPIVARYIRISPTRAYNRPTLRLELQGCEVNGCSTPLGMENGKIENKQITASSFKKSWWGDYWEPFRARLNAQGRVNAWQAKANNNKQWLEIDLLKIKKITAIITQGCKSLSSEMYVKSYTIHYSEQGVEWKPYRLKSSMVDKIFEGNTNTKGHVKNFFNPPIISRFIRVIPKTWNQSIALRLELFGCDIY

[2] = target: ATIII-fondaparinux complex (human antithrombin III with fondaparinux bound) (human, UniProt P01008 33-464, non-covalently bound fondaparinux (synthetic pentasaccharide)); assay: cell-based or functional assay
Chain of ATIII-fondaparinux complex (human antithrombin III with fondaparinux bound) (P01008 33-464 limits assumed, one chain of several): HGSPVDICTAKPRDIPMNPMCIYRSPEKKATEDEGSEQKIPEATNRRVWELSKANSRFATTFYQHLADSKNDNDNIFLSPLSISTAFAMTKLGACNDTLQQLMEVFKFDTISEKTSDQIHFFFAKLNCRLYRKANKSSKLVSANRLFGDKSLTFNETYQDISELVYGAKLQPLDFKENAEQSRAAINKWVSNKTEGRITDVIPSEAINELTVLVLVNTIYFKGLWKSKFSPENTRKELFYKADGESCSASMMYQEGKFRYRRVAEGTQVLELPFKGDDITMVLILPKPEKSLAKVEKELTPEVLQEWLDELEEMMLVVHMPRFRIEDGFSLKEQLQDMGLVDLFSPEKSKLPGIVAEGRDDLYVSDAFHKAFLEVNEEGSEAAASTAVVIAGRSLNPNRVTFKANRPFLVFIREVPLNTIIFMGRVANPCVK

Binder	IIa formation (RFU) in tissue factor-initiated thrombin generation in human plasma against EGR-Xa concentration [1]	IC50 (read off the curve): r-Antidote concentration that halves kiapp of fXa inhibition by the ATIII-fondaparinux complex [2] [nM]
EGR-Xa, active site inhibited full length human fXa (human plasma derived) (protein) chain 1: ANSFLEEMKKGHLERECMEETCSYEEAREVFEDSDKTNEFWNKYKDGDQCETSPCQNQGKCKDGLGEYTCTCLEGFEGKNCELFTRKLCSLDNGDCDQFCHEEQNSVVCSCARGYTLADNGKACIPTGPYPCGKQTLER chain 2: IVGGQECKDGECPWQALLINEENEGFCGGTILSEFYILTAAHCLYQAKRFKVRVGDRNTEQEEGGEAVHEVEVVIKHNRFTKETYDFDIAVLRLKTPITFRMNVAPACLPERDWAESTLMTQKTGIVSGFGRTHEKGRQSTRLKMLEVPYVDRNSCKLSSSFIITQNMFCAGYDTKQEDACQGDSGGPHVTRFKDTYFVTGIVSWGEGCARKGKYGIYTKVTAFLKWIDRSMKTRGLPKAKSHAPEVITSSPLK	circles: falls steeply from about 380,000 RFU at 0 nM to about 180,000 and about 85,000 RFU at the next points, below 50,000 RFU by about 100 nM and about 10,000 RFU at about 500 nM	–
r-Antidote (processed two-chain polypeptide, human factor Xa triple mutant after removal of the -RKRRKR- linker) (other) chain 1: ANSFLFWNKYKDGDQCETSPCQNQGKCKDGLGEYTCTCLEGFEGKNCELFTRKLCSLDNGDCDQFCHEEQNSVVCSCARGYTLADNGKACIPTGPYPCGKQTLER chain 2: IVGGQECKDGECPWQALLINEENEGFCGGTILSEFYILTAAHCLYQAKRFKVRVGDRNTEQEEGGEAVHEVEVVIKHNRFTKETYDFDIAVLRLKTPITFRMNVAPACLPERDWAESTLMTQKTGIVSGFGRTHEKGRQSTRLKMLEVPYVDRNSCKLSSSFIITQNMFCAGYDTKQEDACQGDAGGPHVTRFKDTYFVTGIVSWGEGCARKGKYGIYTKVTAFLKWIDRSMKTRGLPKAKSHAPEVITSSPLK	–	~100
